Measured values reported in paper PMC3927877 (Nature Communications, 2013).
Values belong to the binder of their own block, whether it stands above or below them.

B2: STIM1 CC1_([TM-distal])-CC2 E318Q/E319Q/E320Q/E322Q (domain or fragment, human, UniProt Q13586 312-387, looked up)
chain: SRQKYAQQQLQQVREALRKAEKELESHSSWYAPEALQKWLQLTHEVEVQYYNIKKQNAEKQLLVAKEGAEKIKKKR
B3: STIM1 CC1_([TM-distal])-CC2 A380R (domain or fragment, human, UniProt Q13586 312-387, looked up)
chain: SRQKYAEEELEQVREALRKAEKELESHSSWYAPEALQKWLQLTHEVEVQYYNIKKQNAEKQLLVAKEGREKIKKKR
B5: STIM1 CC1_([TM-distal])-CC2 I383R (domain or fragment, human, UniProt Q13586 312-387, looked up)
chain: SRQKYAEEELEQVREALRKAEKELESHSSWYAPEALQKWLQLTHEVEVQYYNIKKQNAEKQLLVAKEGAEKRKKKR

Experiments:
[1] = target: B5; test: pull-down
[2] = target: B3; test: pull-down
[3] = target: B2; test: pull-down
[4] = target: STIM1 CC1_([TM-distal])-CC2 V324P (human, UniProt Q13586 312-387, V324P); test: pull-down
STIM1 CC1_([TM-distal])-CC2 V324P, sequence (Q13586 312-387 V324P): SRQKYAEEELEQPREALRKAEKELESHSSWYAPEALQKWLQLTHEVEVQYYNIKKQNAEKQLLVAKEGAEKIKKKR

[5] = target: the molecule itself; test: SEC-MALS
[6] = target: STIM1 CC1_([TM-distal])-CC2 (residues 312-387) (human, UniProt Q13586 312-387); test: NMR titration

binding result [1]: binds
binding result [2]: binds
binding result [3]: binds
binding result [4]: binds
B1: MBP-Orai1 C_(272–292) (domain or fragment, human, UniProt Q96D31 272-292, looked up)
chain: ELNELAEFARLQDQLDHRGDH

Binder: B2
binding result [5]: binds

Binder: B3
binding result [5]: binds

B4: STIM1 CC1_([TM-distal])-CC2 K382E/K384E/K385E/K386E (domain or fragment, human, UniProt Q13586 312-387, looked up)
chain: SRQKYAEEELEQVREALRKAEKELESHSSWYAPEALQKWLQLTHEVEVQYYNIKKQNAEKQLLVAKEGAEEIEEER
binding result [5]: binds

Binder: B5
binding result [5]: binds

Kd [6]: 100 to 600 µM
B6: Orai1 C_(272–292) (peptide, UniProt Q96D31 272-292, looked up)
chain: ELNELAEFARLQDQLDHRGDH
